Experimental data reported in article PMC6591361, “Recombinant production of human α2-macroglobulin variants and interaction studies with recombinant G-related α2-macroglobulin binding protein and latent transforming growth factor-β2” (Scientific Reports, 2019).

Assays:
[1] = biological target: N-terminal part of human α2-macroglobulin (N-hα2M) (human) (UniProt P01023); assay: not stated; apparent mass of the purified hα2M fragments without reducing agents; method not named
[2] = biological target: the molecule itself; assay: SEC; Superose 6 10/300 (full-length recombinant hα2M) or Superdex 75 10/300 (pro-TGF-β2), buffer D (20 mM Tris-HCl, 150 mM sodium chloride, pH 7.5)

“N-terminal part of human α2-macroglobulin (N-hα2M) (from UniProt P01023 24-788) (domain or fragment)” gave a stoichiometry N [1] of 2.

B1: Strep-tagged latent human transforming growth factor-β2 (pro-TGF-β2) (natural protein)
chain: LSLSTCSTLDMDQFMRKRIEAIRGQILSKLKLTSPPEDYPEPEEVPPEVISIYNSTRDLLQEKASRRAAACERERSDEEYYAKEVYKIDMPPFFPSENAIPPTFYRPYFRIVRFDVSAMEKNASNLVKAEFRVFRLQNPKARVPEQRIELYQILKSKDLTSPTQRYIDSKVVKTRAEGEWLSFDVTDAVHEWLHHKDRNLGFKISLHCPCCTFVPSNNYIIPNKSEELEARFAGIDGTSTYTSGDQKTIKSTRKKNSGKTPHLLLMLLPSYRLESQQTNRRKKRALDAAYCFRNVQDNCCLRPLYIDFKRDLGWKWIHEPKGYNANFCAGACPYLWSSDTQHSRVLSLYNTINPEASASPCCVSQDLEPLTILYYIGKTPKIEQLSNMIVKSCKCS
notes: residues from the construct between the tag and L21; human pro-TGF-β2 (LAP plus mature TGF-β2), UniProt P61812, residues L21-S414; The purified protein was partially cleaved before A303 by host peptidases; also called Strep-tagged pro-TGF-β2; pS6-TGFB2-STREP; not shown: Strep-tag, N-terminal, kept
In the case of B1, the “stoichiometry N” value [2] is reported as 2.

B2: N-terminally octahistidine-tagged latent human transforming growth factor-β2 (pro-TGF-β2) (natural protein)
chain: LSLSTCSTLDMDQFMRKRIEAIRGQILSKLKLTSPPEDYPEPEEVPPEVISIYNSTRDLLQEKASRRAAACERERSDEEYYAKEVYKIDMPPFFPSENAIPPTFYRPYFRIVRFDVSAMEKNASNLVKAEFRVFRLQNPKARVPEQRIELYQILKSKDLTSPTQRYIDSKVVKTRAEGEWLSFDVTDAVHEWLHHKDRNLGFKISLHCPCCTFVPSNNYIIPNKSEELEARFAGIDGTSTYTSGDQKTIKSTRKKNSGKTPHLLLMLLPSYRLESQQTNRRKKRALDAAYCFRNVQDNCCLRPLYIDFKRDLGWKWIHEPKGYNANFCAGACPYLWSSDTQHSRVLSLYNTINPEASASPCCVSQDLEPLTILYYIGKTPKIEQLSNMIVKSCKCS
notes: residues from the construct between the tag and L21; human pro-TGF-β2 (LAP plus mature TGF-β2), UniProt P61812, residues L21-S414; Partially cleaved before A303 by host peptidases; also called N-terminally His6-tagged pro-TGF-β2; pS6-TGFB2-H8; not shown: His8, N-terminal, kept
For B2, the “stoichiometry N” value [2] was 2.
